Results taken from PMC3482686.

Target: AEBP2 (shorter isoform) (human)
Assay: negative-stain EM 3D reconstruction with localisation of MBP and GFP tags; purified PRC2-AEBP2 complex mildly cross-linked with 0.015% glutaraldehyde, stained with 2% uranyl formate; random conical tilt and projection matching, 21 Å; tags located in reference-free 2D class averages

Row | stoichiometry N | Substance
1 | 1 | EED (from UniProt O75530 1-441) (natural protein)
2 | 1 | Ezh2 (from UniProt Q15910-2 1-751) (enzyme)
